# Test results as given in patent publication US20150044666A1.
# Assays:
# [1] = molecular target: Recombinant HIV-1 p24 (HIV-1) (UniProt P04591); test: forward two-site immuno-PCR, 10 pM reporter MAb-DNA, capture MAb 739P on particles; p24 at 0.1 pg/mL
# [2] = molecular target: Recombinant HIV-1 p24 (HIV-1) (UniProt P04591); test: forward two-site immuno-PCR, 10 pM reporter MAb-DNA, capture MAb 739P on particles; p24 at 0.01 pg/mL
# [3] = molecular target: Recombinant HIV-1 p24 (HIV-1) (UniProt P04591); test: forward two-site immuno-PCR, 10 pM reporter MAb-DNA, capture MAb 739P on particles; p24 at 1 pg/mL
# [4] = molecular target: Recombinant HIV-1 p24 (HIV-1) (UniProt P04591); test: forward two-site immuno-PCR; p24 0.1 pg/mL; reporter MAb-DNA 10 pM
# [5] = molecular target: Recombinant HIV-1 p24 (HIV-1) (UniProt P04591); test: forward two-site immuno-PCR; p24 0.1 pg/mL; reporter MAb-DNA 5 pM
# [6] = molecular target: Recombinant HIV-1 p24 (HIV-1) (UniProt P04591); test: method not stated; rate and equilibrium constants listed for commercially available anti-HIV p24 antibodies
# [7] = molecular target: Recombinant HIV-1 p24 (HIV-1) (UniProt P04591); test: forward two-site immuno-PCR; p24 0.1 pg/mL; reporter MAb-DNA 2.5 pM
# [8] = molecular target: Recombinant HIV-1 p24 (HIV-1) (UniProt P04591); test: forward two-site immuno-PCR; p24 0.1 pg/mL; reporter MAb-DNA 50 pM
# [9] = molecular target: Recombinant HIV-1 p24 (HIV-1) (UniProt P04591); test: forward two-site immuno-PCR; p24 0.1 pg/mL; reporter MAb-DNA 15 pM
# [10] = molecular target: Recombinant HIV-1 p24 (HIV-1) (UniProt P04591); test: forward two-site immuno-PCR, 10 pM reporter MAb-DNA, capture MAb 739P on particles; p24 at 10 pg/mL
# [11] = molecular target: Recombinant HIV-1 p24 (HIV-1) (UniProt P04591); test: forward two-site immuno-PCR; p24 0.1 pg/mL; reporter MAb-DNA 20 pM
substance,measurement,setting,value
NIH AIDS Research & Reference Reagent Program HIV-1 183-H12-5C (antibody),Threshold Cycle (Ct),[1],23.8 cycles
same,Threshold Cycle (Ct),[2],26.6 cycles
same,Threshold Cycle (Ct),[3],20.6 cycles
same,Average ΔThreshold Cycle (ΔCp) over blank,[4],2.2 cycles
same,Average ΔThreshold Cycle (ΔCp) over blank,[5],2.6 cycles
same,Kd,[6],3.93 nM
same,koff,[6],5.9e-05 s⁻¹
same,kon,[6],15000 M⁻¹ s⁻¹
same,Average ΔThreshold Cycle (ΔCp) over blank,[7],0.3 cycles
same,Average ΔThreshold Cycle (ΔCp) over blank,[8],0.9 cycles
same,Average ΔThreshold Cycle (ΔCp) over blank,[9],2 cycles
same,Threshold Cycle (Ct),[10],17.7 cycles
same,Average ΔThreshold Cycle (ΔCp) over blank,[11],1.5 cycles
